The record followed here is US20230321261A1, “AXL-SPECIFIC ANTIBODY-DRUG CONJUGATES FOR CANCER TREATMENT” (GENMAB A/S, priority 2016, published 2023).

One data set concerns LCLC-103H cells. Description: In vitro cytotoxicity (CellTiter-Glo, 5 days). The format is cell-based, human. As to conditions: MMAE-conjugated antibodies.
The test system of the next data set is MDA-MB-231 cells. Description: In vitro cytotoxicity (CellTiter-Glo, 5 days). The format is cell-based, human. As to conditions: MMAE-conjugated antibodies. (In general: Cellular ATP, detected with luciferase, serves as a proxy for viable cell number.)
For data set [1], the system named is LCLC-103H xenograft tumors. Description: LCLC-103H xenograft model. The format is in vivo, SCID mice. How it is done: 5 × 10^6 LCLC-103H (large cell lung carcinoma) tumor cells (obtained from Leibniz-Institut DSMZ-Deutsche Sammlung von Mikroorganismen und Zellkulturen GmbH (DSMZ)) in 200 µL PBS were injected subcutaneously in the right flank of female SCID mice. Starting 14-21 days after tumor cell inoculation, when the average tumor size was >100-200 mm^3 and distinct tumor growth was observed, a single injection with 1 mg/kg (20 µg/mouse) IgG1-AXL-vcMMAE antibodies (as described in Supplementary Example 1) or control (unconjugated IgG1-b12) was given intraperitoneally (100 µL/mouse). Tumor volume was determined at least two times per week. Tumor volumes (mm^3) were calculated from caliper (PLEXX) measurements as: 0.52 × (length) × (width)^2.
(§1) Tumor induction was performed by subcutaneous injection of 5 × 10^6 A431 or LCLC-103H tumor cells (both obtained from Leibniz-Institut - Deutsche Sammlung von Mikroorganismen und Zellkulturen GmbH (DSMZ)) in 200 µL PBS in the right flank of female SCID mice. Treatment was started 14-21 days after tumor cell inoculation, when the average tumor size was >100-200 mm^3 and distinct tumor growth was observed. Mice received a single injection or a total of 4 biweekly intraperitoneal injections with IgG1-AXL-vcMMAE ADCs or control antibody (unconjugated IgG1-b12), as indicated. Tumor volume was determined at least two times per week. Tumor volumes (mm^3) were calculated from caliper (PLEXX) measurements as: 0.52 × (length) × (width)^2.

A further data set relates to PAXF1657 tumors. Nature of the data set: PAXF1657 pancreas cancer PDX model. The format is in vivo, NMRI nu/nu mice.
The next data set deals with A431 tumors. Nature of the data set: A431 xenograft model (high Gas6). The format is in vivo, SCID mice. The settings on record: 3 mg/kg. Here is the method: as §1
The test system of another data set is A431 cells. As to conditions: MMAE-conjugated antibodies, 5 days.

B1: IgG1-AXL-148-vcMMAE (conjugate)
VH: EVQLLESGGGLVQPGGSLRLSCAASGFTFSSYAMTWVRQAPGKGLEWVSAISISGGSTFYADSVKGRFTISRDNSKNTLYLQMNSLRAEDTAVYYCRGYSGYVYDAFDFWGQGTMVTVSS
VL: DIQMTQSPSSLSASVGDRVTITCRASQGISNWLAWYQQKPEKAPKSLIYAASSLQSGVPSRFSGSGSGTDFTLTISSLQPEDFATYYCQQYNSYPLTFGGGTKVEIK
Turning to B1, in the data set with LCLC-103H cells, the “Cytotoxicity in LCLC-103H cells EC50” value amounted to 0.012 µg/mL. Also, the “Cytotoxicity EC50 (µg/mL) MDA-MB231 (n=2) Mean” value with MDA-MB-231 cells is reported as 0.012 µg/mL. The “anti-tumor activity in the LCLC-103H xenograft model” value in data set [1] (3 mg/kg (Example 13, FIG. 14A)) was “tumor regression”. Moreover, the “anti-tumor activity in established SC LCLC-103H tumors” value in data set [1] (single injection 1 mg/kg intraperitoneally (Example 9)) is “tumor regression”. In addition, the “growth of PAXF1657 tumors compared to the control group” value in the data set on PAXF1657 tumors (2 mg/kg i.v., day 0) was “significantly reduced the growth”. The “growth of PAXF1657 tumors” value in the data set on PAXF1657 tumors (4 mg/kg i.v., day 0) is reported as “induced tumor regression”. Further, in the data set on PAXF1657 tumors (mouse, in vivo), the “anti-tumor activity in the PAXF1657 model (FIG. 10B, 10C)” value is reported as “dose-dependent antitumor activity”. In addition, the “anti-tumor activity in the A431 xenograft model” value in the data set with A431 tumors is given as “growth inhibition”. For the same molecule, the “Cytotoxicity EC50 (µg/mL) A431 (n=3) Mean” value in the data set on A431 cells stood at 0.070 µg/mL.
